Measured values reported in patent publication US20190112393 (published 2019).
Residue numbers refer to the chain shown, from its start. Read-outs that look alike come from different tables or passages of the source.

Key:
human IgE [1] = molecular target: human IgE (human); assay: SPR, pH 5.8, 1.2 mM Ca, 37C
human IgE [2] = molecular target: human IgE (human); assay: SPR, pH 7.4, 1.2 mM Ca, 37C
human IgE [3] = molecular target: human IgE (human); assay: SPR, pH 5.8, 3 uM Ca, 37C
human IL-6 receptor = molecular target: T1, human IL-6 receptor (human, UniProt P08887); assay: SPR, pH 7.4, 3 uM Ca, 37C
T1 chain: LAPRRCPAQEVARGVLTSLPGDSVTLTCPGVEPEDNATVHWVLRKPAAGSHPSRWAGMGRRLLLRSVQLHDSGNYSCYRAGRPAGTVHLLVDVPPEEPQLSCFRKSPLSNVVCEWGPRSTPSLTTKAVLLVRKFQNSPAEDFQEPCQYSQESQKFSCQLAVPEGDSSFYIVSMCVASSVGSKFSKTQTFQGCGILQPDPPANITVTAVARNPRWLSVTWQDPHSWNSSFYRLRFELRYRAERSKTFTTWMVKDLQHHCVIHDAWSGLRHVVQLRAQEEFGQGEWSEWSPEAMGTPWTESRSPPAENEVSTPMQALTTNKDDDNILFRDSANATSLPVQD

human FcγRIIa type H = molecular target: T2, human FcγRIIa type H (human, UniProt P12318); assay: SPR
T2 chain: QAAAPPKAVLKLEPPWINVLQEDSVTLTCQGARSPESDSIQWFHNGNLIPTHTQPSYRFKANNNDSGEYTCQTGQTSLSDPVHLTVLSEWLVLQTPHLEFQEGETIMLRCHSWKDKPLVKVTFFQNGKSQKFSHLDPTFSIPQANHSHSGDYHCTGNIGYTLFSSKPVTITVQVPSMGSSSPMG

human FcγRIa [4] = molecular target: T3, human FcγRIa (human, UniProt P12314); assay: SPR
T3 chain: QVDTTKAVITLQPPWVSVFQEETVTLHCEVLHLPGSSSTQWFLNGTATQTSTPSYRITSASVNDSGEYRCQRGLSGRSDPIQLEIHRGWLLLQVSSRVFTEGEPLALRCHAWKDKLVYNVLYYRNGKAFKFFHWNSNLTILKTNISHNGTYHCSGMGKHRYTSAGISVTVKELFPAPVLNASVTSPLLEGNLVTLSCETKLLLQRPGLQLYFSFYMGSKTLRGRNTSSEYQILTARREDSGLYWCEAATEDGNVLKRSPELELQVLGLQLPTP

human FcγRIa [5] = molecular target: T3, human FcγRIa; assay: SPR
human FcγRIa [6] = molecular target: T3, human FcγRIa; assay: SPR
human FcγRIIb = molecular target: T4, human FcγRIIb (human, UniProt P31994); assay: SPR
T4 chain: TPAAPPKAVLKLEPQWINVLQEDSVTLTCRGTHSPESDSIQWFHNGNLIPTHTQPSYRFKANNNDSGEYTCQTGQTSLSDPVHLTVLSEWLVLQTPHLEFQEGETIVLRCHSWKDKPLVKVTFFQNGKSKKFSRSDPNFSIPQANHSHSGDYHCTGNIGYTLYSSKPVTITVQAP

human IgA [7] = molecular target: human IgA (human); assay: SPR, pH 7.4, 1.2 mM Ca, 37C
Chain of human IgA (human) (VH, as listed by the source): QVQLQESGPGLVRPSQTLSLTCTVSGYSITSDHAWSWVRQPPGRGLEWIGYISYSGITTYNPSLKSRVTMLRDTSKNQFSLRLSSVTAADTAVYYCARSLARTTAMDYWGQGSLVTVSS

human IgA [8] = molecular target: human IgA (human); assay: SPR, pH 5.8, 1.2 mM Ca, 37C
human IgA [9] = molecular target: human IgA (human); assay: SPR, pH 7.4, 3 uM Ca, 37C
human IgA [10] = molecular target: human IgA (human); assay: SPR, pH 5.8, 3 uM Ca, 37C

B1: 278-IgG1 (clone 278) (antibody, V domains shown)
VH: QSLEESGGRLVTPGTPLTLTCTASGFSLSSYHMSWVRQAPGKGLEWIGVINSAGNTYYASWAKGRFTVSKTSTTVDLNLTSLTTEDTATYFCARYVFSSGSHDIWGPGTLVTVSS
VL: AYDMTQTPASVEVAVGGTVTIKCQASQSIGSWLAWYQQKPGQPPKELIYGTSTLESGVPSRFIGSGSGTEFTLTISGVECADAATYYCQQGYSEDNIDNAFGGGTEVVVKR
For B1, the Kd (human IgE [1]) was 2000 nM, the Kd (human IgE [2]) was 2.4 nM and the Kd (human IgE [3]) was 3900 nM.

B2: FH4-IgG1 (antibody, V domains shown)
VH: QVQLVQSGAEVKKPGSSVKVSCKASGGTFSSYAISWVRQAPGQGLEWMGGIIPIFGTANYAQKFQGRVTITADESTSTAYMELSSLRSEDTAVYYCARERDYYDSSGYYDAFDIWGQGTMVTVSS
VL: ETTVTQSPSFLSASVGDRVTITCITTTDIDDDMNWFQQEPGKAPKLLISEGNILRPGVPSRFSSSGYGTDFTLTISKLQPEDFATYYCLQSDNLPFTFGQGTKLEIKR
B2 gave a Kd (human IL-6 receptor) of over 34000 nM.

B3: 6RL#9-IgG1 (antibody, V domains shown)
VH: QVQLVQSGAEVKKPGASVKVSCKASGYTFTSYYMHWVRQAPGQGLEWMGIINPSGGSTSYAQKFQGRVTMTRDTSTSTVYMELSSLRSEDTAVYYCARDDPGGGEYYFDYWGQGTLVTVSS
VL: QSVLTQPPSVSGAPGQRVTISCTGSRSNMGAGYDVHWYQLLPGAAPKLLISHNTHRPSGVPDRFSGSKSGASASLAITGLQAEDEADYYCQSHDSSLSAVVFGGGTKLTVLS
Work on B3 yielded a Kd (human IL-6 receptor) of over 31000 nM.

B4: BP438 (antibody)
chain 1: QVQLQESGPGLVKPSETLSLTCAVSGHSISHDHAWSWVRQPPGEGLEWIGFISYSGITNYNPSLQGRVTISRDNSKNTLYLQMNSLRAEDTAVYYCARSLARTTAMDYWGEGTLVTVSSASTKGPSVFPLAPSSKSTSGGTAALGCLVKDYFPEPVTVSWNSGALTSGVHTFPAVLQSSGLYSLSSVVTVPSSSLGTQTYICNVNHKPSNTKVDKKVEPKSCDKTHTCPPCPAPDLLGDDSVFLFPPKPKDTLMISRTPEVTCVVVDVAEEDGEVKFNWYVDGVEVHNAKTKPREEQYNSTYRVVSVLTVLHQDWLNGKEYKCKVSNKALPRPTEKTISKAKGQPREPQVYTLPPSRDELTKNQVSLTCLVKGFYPSDIAVEWESNGQPENNYKTTPPVLDSDGSFFLYSKLTVDKSRWQQGNVFSCSVMHEALHNHYTQESLSLSP
chain 2: not shown
For B4, the Kd (human FcγRIIa type H) was 1600 nM.

B5: BP267 (antibody)
chain 1: B4 chain 1 with A269S, R332A, T334I
chain 2: not shown
Work on B5 yielded a Kd (human FcγRIa [4]) of 4 nM.

B6: BP456 (antibody)
chain 1: B4 chain 1 with T334I, P398M
chain 2: not shown
B6 showed a Kd (human FcγRIa [5]) of 0.6 nM.

B7: BP384 (antibody)
chain 1: B4 chain 1 with A269S, E270D, Y298D, T334I, K336R
chain 2: not shown
Work on B7 yielded a Kd (human FcγRIa [6]) of 3 nM.

B8: BP447 (antibody)
chain 1: B4 chain 1 with T334I, P398A
chain 2: not shown
B8 gave a Kd (human FcγRIa [5]) of 0.9 nM.

B9: BP468 (antibody)
chain 1: B4 chain 1 with A269S, E270D, Y298D, T334I, K336T
chain 2: not shown
Binder B9 has a Kd (human FcγRIIb) of 40 nM.

B10: GA2-IgG1 (antibody, V domains shown)
VH: QVQLVQSGAEVKKPGSSVKVSCKASGGTFSSYAISWVRQAPGQGLEWMGGIIPIFGTANYAQKFQGRVTITADESTSTAYMELSSLRSEDTAVYYCARPRWETAISSDAFDIWGQGTMVTVSS
VL: DIQMTQSPSSLSASVGDRVTITCRASQSISDDLNWYQQKPGKAPKLLIYEASNLQSGVPSRFSGSGSGTDFTLTISSLQPEDFATYYCQQHSSSPLTFGQGTKVEIKR
With B10 the Kd (human IgA [7]) was 39 nM, the Kd (human IgA [8]) was 4000 nM and the Kd (human IgA [9]) was 6700 nM. For the same binder, the Kd (human IgA [10]) was 5000 nM.
